The results in this text go back to the supplement of paper PMC5998384.

The subject of series [1] is HeLa Kyoto. The series can be described thus: melting temperature (median over replicates), in situ; higher = more thermally stable.
Series [2] relates to HeLa Kyoto. The series can be described thus: solubility change mitosis vs G1/S (difference of NP-40 vs SDS log2 ratios) (log2 ratio difference); higher = more soluble in mitosis.
Series [3] deals with HeLa Kyoto. In words: thermal stability score vs G1/S (z-score of summed log2 fold changes over temperatures); higher = more thermally stable than in G1/S.
Series [4] concerns HeLa Kyoto. In words: solubility in G1/S (NP-40 vs SDS abundance) (log2 ratio); higher = more soluble. To be noted: cell cycle stage: G1/S.
The mark [5] stands for this setting: cell cycle stage: early G1 (4.5 h after nocodazole release).
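Throughout, for melting temperature (median over replicates), in situ: HeLa Kyoto cells synchronized by double thymidine or nocodazole block, proteins quantified by TMT10plex mass spectrometry, three independent biological replicates.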
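Throughout, for solubility change mitosis vs G1/S (difference of NP-40 vs SDS log2 ratios): synchronized HeLa Kyoto cells (double thymidine block for G1/S, nocodazole release for mitosis), protein amounts in NP-40 versus SDS lysates quantified by mass spectrometry, three biological replicates.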
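Throughout, for solubility in G1/S (NP-40 vs SDS abundance): HeLa Kyoto cells arrested at G1/S by double thymidine block, proteins quantified by TMT10plex mass spectrometry in mild NP-40 versus SDS extracts, three biological replicates.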
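Throughout, for thermal stability score vs G1/S (z-score of summed log2 fold changes over temperatures): synchronized HeLa Kyoto cells, proteins quantified by TMT10plex mass spectrometry, three biological replicates, mitosis taken 0.5 h after nocodazole release, G1/S directly after double thymidine block.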

On to “MKIFVGNVDGADTTPEELAALFAPYGTVMSCAVMKQFAFVHMRENAGALRAIEALHGHELRPGRALVVEMSRPRPLNTWKIFVGNVSAACTSQELRSLFERRGRVIECDVVKDYAFVHMEKEADAKAAIAQLNGKEVKGKRINVELSTKGQKKGPGLAVQSGDKTKKPGAGDTAFPGTGGFSATFDYQQAFGNSTGGFDGQARQPTPPFFGRDRSPLRRSPPRASYVAPLTAQPATYRAQPSVSLGAAYRAQPSASLGVGYRTQPMTAQAASYRAQPSVSLGAPYRGQLASPSSQSAAASSLGPYGGAQPSASALSSYGGQAAAASSLNSYGAQGSSLASYGNQPSSYGAQAASSYGVRAAASSYNTQGAASSLGSYGAQAASYGAQSAASSLAYGAQAASYNAQPSASYNAQSAPYAAQQAASYSSQPAAYVAQPATAAAYASQPAAYAAQATTPMAGSYGAQPVVQTQLNSYGAQASMGLSGSYGAQSAAAATGSYGAAAAYGAQPSATLAAPYRTQSSASLAASYAAQQHPQAAASYRGQPGNAYDGAGQPSAAYLSMSQGAVANANSTPPPYERTRLSPPRASYDDPYKKAVAMSKRYGSDRRLAELSDYRRLSESQLSFRRSPTKSSLDYRRLPDAHSDYARYSGSYNDYLRAAQMHSGYQRRM [RBM14]”, for which the melting temperature with HeLa Kyoto [1] (cell cycle stage: G1/S) stood at 47.3 °C; in the series on HeLa Kyoto [1] (cell cycle stage: mitosis), 46.1 °C. Besides, the “solubility change mitosis (log2)” value in the series with HeLa Kyoto [2] is 0.332. For the same sequence, the figures for the thermal stability score in the series with HeLa Kyoto [3] (setting [5]) and in the series with HeLa Kyoto [3] (cell cycle stage: mitosis) were 1.48 and 2.24, respectively. Besides, the “solubility in G1/S (log2)” value in the series with HeLa Kyoto [4] was -0.765.

“MKKAEMGRFSISPDEDSSSYSSNSDFNYSYPTKQAALKSHYADVDPENQNFLLESNLGKKKYETEFHPGTTSFGMSVFNLSNAIVGSGILGLSYAMANTGIALFIILLTFVSIFSLYSVHLLLKTANEGGSLLYEQLGYKAFGLVGKLAASGSITMQNIGAMSSYLFIVKYELPLVIQALTNIEDKTGLWYLNGNYLVLLVSLVVILPLSLFRNLGYLGYTSGLSLLCMVFFLIVVICKKFQVPCPVEAALIINETINTTLTQPTALVPALSHNVTENDSCRPHYFIFNSQTVYAVPILIFSFVCHPAVLPIYEELKDRSRRRMMNVSKISFFAMFLMYLLAALFGYLTFYEHVESELLHTYSSILGTDILLLIVRLAVLMAVTLTVPVVIFPIRSSVTHLLCASKDFSWWRHSLITVSILAFTNLLVIFVPTIRDIFGFIGASAASMLIFILPSAFYIKLVKKEPMKSVQKIGALFFLLSGVLVMTGSMALIVLDWVHNAPGGGH [SLC38A2]”: the melting temperature with HeLa Kyoto [1] (cell cycle stage: G1/S) came out at 57.5 °C; in the series with HeLa Kyoto [1] (cell cycle stage: mitosis) it was 57.6 °C. For the same sequence, the “solubility change mitosis (log2)” value in the series on HeLa Kyoto [2] is -0.301. Moreover, the figures for the thermal stability score in the series on HeLa Kyoto [3] (setting [5]) and in the series on HeLa Kyoto [3] (cell cycle stage: mitosis) were -0.691 and -0.748, respectively. The “solubility in G1/S (log2)” value with HeLa Kyoto [4] is 0.157.

Regarding “MKKEHVLHCQFSAWYPFFRGVTIKSVILPLPQNVKDYLLDDGTLVVSGRDDPPTHSQPDSDDEAEEIQWSDDENTATLTAPEFPEFATKVQEAINSLGGSVFPKLNWSAPRDAYWIAMNSSLKCKTLSDIFLLFKSSDFITRDFTQPFIHCTDDSPDPCIEYELVLRKWCELIPGAEFRCFVKENKLIGISQRDYTQYYDHISKQKEEIRRCIQDFFKKHIQYKFLDEDFVFDIYRDSRGKVWLIDFNPFGEVTDSLLFTWEELISENNLNGDFSEVDAQEQDSPAFRCTNSEVTVQPSPYLSYRLPKDFVDLSTGEDAHKLIDFLKLKRNQQEDD [CDC123]”, the melting temperature in the series on HeLa Kyoto [1] (cell cycle stage: G1/S) was found to be 51.7 °C; in the series on HeLa Kyoto [1] (cell cycle stage: mitosis) it was 50.8 °C. For the same sequence, the “solubility change mitosis (log2)” value with HeLa Kyoto [2] was -0.111. Further, the thermal stability score with HeLa Kyoto [3] (setting [5]) was found to be 1.5; in the series with HeLa Kyoto [3] (cell cycle stage: mitosis), 0.565. In the series on HeLa Kyoto [4], the “solubility in G1/S (log2)” value was -0.058.

In the case of “MKKMSRNVLLQMEEEEDDDDGDIVLENLGQTIVPDLGSLESQHDFRTPEFEEFNGKPDSLFFNDGQRRIDFVLVYEDESRKETNKKGTNEKQRRKRQAYESNLICHGLQLEATRSVLDDKLVFVKVHAPWEVLCTYAEIMHIKLPLKPNDLKNRSSAFGTLNWFTKVLSVDESIIKPEQEFFTAPFEKNRMNDFYIVDRDAFFNPATRSRIVYFILSRVKYQVINNVSKFGINRLVNSGIYKAAFPLHDCKFRRQSEDPSCPNERYLLYREWAHPRSIYKKQPLDLIRKYYGEKIGIYFAWLGYYTQMLLLAAVVGVACFLYGYLNQDNCTWSKEVCHPDIGGKIIMCPQCDRLCPFWKLNITCESSKKLCIFDSFGTLVFAVFMGVWVTLFLEFWKRRQAELEYEWDTVELQQEEQARPEYEARCTHVVINEITQEEERIPFTAWGKCIRITLCASAVFFWILLIIASVIGIIVYRLSVFIVFSAKLPKNINGTDPIQKYLTPQTATSITASIISFIIIMILNTIYEKVAIMITNFELPRTQTDYENSLTMKMFLFQFVNYYSSCFYIAFFKGKFVGYPGDPVYWLGKYRNEECDPGGCLLELTTQLTIIMGGKAIWNNIQEVLLPWIMNLIGRFHRVSGSEKITPRWEQDYHLQPMGKLGLFYEYLEMIIQFGFVTLFVASFPLAPLLALVNNILEIRVDAWKLTTQFRRLVPEKAQDIGAWQPIMQGIAILAVVTNAMIIAFTSDMIPRLVYYWSFSVPPYGDHTSYTMEGYINNTLSIFKVADFKNKSKGNPYSDLGNHTTCRYRDFRYPPGHPQEYKHNIYYWHVIAAKLAFIIVMEHVIYSVKFFISYAIPDVSKRTKSKIQREKYLTQKLLHENHLKDMTKNMGVIAERMIEAVDNNLRPKSE [ANO6]”, the melting temperature came out at 54.6 °C with HeLa Kyoto [1] (cell cycle stage: G1/S) and 54.3 °C in the series on HeLa Kyoto [1] (cell cycle stage: mitosis). In addition, the “solubility change mitosis (log2)” value with HeLa Kyoto [2] was -0.0681. Also, the thermal stability score turned out to be 0.734 in the series with HeLa Kyoto [3] (setting [5]) and 0.413 in the series with HeLa Kyoto [3] (cell cycle stage: mitosis). For the same sequence, the “solubility in G1/S (log2)” value in the series with HeLa Kyoto [4] turned out to be 0.0135.
